Results reported in patent publication US20120094909A1 (Bristol-Myers Squibb, published 2012).

Assays:
[1] = molecular target: T1, human PCSK9 (proprotein convertase subtilisin kexin type 9) (human, UniProt Q8NBP7 31-692); assay: FRET, competitor EGFA peptide
T1 construct: Directly immobilized (SPR ProteOn), biotinylated (BLI), or in solution, depending on the assay; also called hPCSK9
Excerpt: (§1) Table 11 summarizes the overall data from these three FRET assays.

[2] = molecular target: cynomolgus monkey PCSK9 (cynomolgus monkey, UniProt A0A7N9D9N8 150-747); assay: FRET, competitor EGFA peptide
Excerpt: as §1

[3] = molecular target: T2, human PCSK9 (proprotein convertase subtilisin kexin type 9) (human, UniProt Q8NBP7 31-692); assay: cell-based or functional assay
[4] = molecular target: T2, human PCSK9 (proprotein convertase …); assay: PCSK9:EGFA FRET, competitor EGFA peptide
[5] = molecular target: T2, human PCSK9 (proprotein convertase …); assay: BLI (Octet Red), 37 C
Procedure: Tips were then immersed into a buffer-only well for observation of Adnectin dissociation. Experiments were performed in a temperature controlled environment at either 25 or 37° C., and the oscillation speed was set at 1500 rpm.
Binding interaction analysis was performed using proprietary software from Fortebio (Fortebio Data Analysis Software version 6.3.0.36). Global fits were performed for all samples, using a 1:1 binding model. The nature of these global fits constrained all values of concentration to a single pair of association and dissociation rates that were themselves constrained to each other. Affinities (KD), association and dissociation rates were averaged over the various loading levels used in the analysis.

Binder | IC50 [1] [nM] | IC50 [2] [nM] | LDLR Depletion (% inhibition at 75 nM) [3] [%] | EC50 [4] [nM] | Kd [5] [nM]
1922G04(R25D) (designed binder, Anti-PCSK9 Adnectin, GSGS-His6 tail; the entry already carries the substitution) MGVSDVPRDLEVVAATPTSLLISWDPPSHAYGYYRITYGETGGNSPVQEFTVPIGKGTATISGLKPGVDYTITVYAVEYPWKGSGYYHRPISINYRTGSGSHHHHHH | 2.5 | 48.1 | – | – | –
1922G04(R25E) (designed binder, Anti-PCSK9 Adnectin, GSGS-His6 tail; the entry already carries the substitution) MGVSDVPRDLEVVAATPTSLLISWEPPSHAYGYYRITYGETGGNSPVQEFTVPIGKGTATISGLKPGVDYTITVYAVEYPWKGSGYYHRPISINYRTGSGSHHHHHH | 3.5 | 58.5 | – | – | –
2382D05 (designed binder) MGVSDVPRDLEVVAATPTSLLISWDAPADGGYGYYRITYGETGGNSPVQEFTVPVSKGTATISGLKPGVDYTITVYAVEFDFPGAGYYHRPISINYRTEIDKPSQHHHHHH | – | – | – | 2.6 | 0.314
2382F02 (designed binder) MGVSDVPRDLEVVAATPTSLLISWDAPAGGGYGYYRITYGETGGNSPVQEFTVPVSKGTATISGLKPGVDYTITVYAVEFDFPGSGYYHRPISINYRTEIDKPSQHHHHHH | – | – | -6.3 | 2.6 | –
2381A08 (designed binder) MGVSDVPRDLEVVAATPTSLLISWDAPADGGYGYYRITYGETGGNSPVQEFTVPGSKGTATISGLKPGVDYTITVYAVEYDFPGAGYYHRPISINYRTEIDKPSQHHHHHH | – | – | 91.4 | 3.6 | –
2382H04 (designed binder) MGVSDVPRDLEVVAATPTSLLISWDAPAAGGYGYYRITYGETGGNSPVQEFTVPSSKGTATISGLKPGVDYTITVYAVEYDFPGAGYYHRPISINYRTEIDKPSQHHHHHH | – | – | 68.2 | 3.2 | –
2382E04 (designed binder) MGVSDVPRDLEVVAATPTSLLISWDAPAGGGYGYYRITYGETGGNSPVQEFTVPVSKGTATISGLKPGVDYTITVYAVEFTFPGAGYYHRPISINYRTEIDKPSQHHHHHH | – | – | 61.5 | 3 | –
2451A10 (designed binder) MGVTDVPRDMEVVAATPTSLLISWQPPAVTYGYYRITYGETGGNSTLQQFTVPVYKGTATISGLKPGVDYTITVYAVEYPYDHSGYYHRPISINYRTEIDKPSQHHHHHH | – | – | 53.7 | 10.9 | –
2451C11 (designed binder) MGIVDVPRDLEVVAATPTSLLISWDPPAGAYGYYRITYGETGGNSPKQQFTVPGYKGTATISGLKPGVDYTITVYAVEYPYDHSGYYHRPISINYRTEIDKPSQHHHHHH | – | – | 70.3 | 9.7 | –
2382B09 (designed binder) MGVSDVPRDLEVVAATPTSLLISWDAPADAYGYYRITYGETGGNSPVQEFTVPVSKGTATISGLKPGVDYTITVYAVEFDYPGSGYYHRPISINYRTEIDKPSQHHHHHH | – | – | 105 | 3.8 | 0.656
2382H10 (designed binder) MGVSDVPRDLEVVAATPTSLLISWDAPAGGYGYYRITYGETGGNSPVQEFTVPVSKGTATISGLKPGVDYTITVYAVEFDFPGSGYYHRPISINYRTEIDKPSQHHHHHH | – | – | 119 | 2.6 | 1.4
2382D09 (designed binder) MGVSDVPRDLEVVAATPTSLLISWDAPAEGYGYYRITYGETGGNSPVQEFTVPVSKGTATISGLKPGVDYTITVYAVEFDFPGAGYYHRPISINYRTEIDKPSQHHHHHH | – | – | 109 | 2.6 | 0.304
2381B02 (designed binder) MGVSDVPRDLEVVAATPTSLLISWEPFSRLPGGGEYYRITYGETGGNSPLQQFTVPGSKGTATISGLKPGVDYTITVYAVEYPYDYSGYYHRPISINYRTEIDKPSQHHHHHH | – | – | 125 | 2.5 | 3.29
2381B04 (designed binder) MGVSDVPRDLEVVAATPTSLLISWEPFSRLPGGGEYYRITYGETGGNSPLQQFTVPGSKGTATISGLKPGVDYTITVYAVEYPYEHSGYYHRPISINYRTEIDKPSQHHHHHH | – | – | 122 | 2.4 | 0.527

Continued, values first:

IC50 [1] [nM] | IC50 [2] [nM] | LDLR Depletion (% inhibition at 75 nM) [3] [%] | EC50 [4] [nM] | Kd [5] [nM] | Binder
– | – | 57.7 | 9 | – | 2381G06 (designed binder) MGVSDVPRDLEVVAATPTSLLISWSEKLDGKARRGYYRITYGETGGNSPVQQFTVPGSKGTATISGLKPGVDYTITVYAVEFPYDHSGYYHRPISINYRTEIDKPSQHHHHHH
– | – | 77.8 | 2.7 | – | 2382G03 (designed binder) MGVSDVPRDLEVVAATPTSLLISWDAPAEAEAYGYYRITYGETGGNSPVQEFTVPVSKGTATISGLKPGVDYTITVYAVEYVFPGAGYYHRPISINYRTEIDKPSQHHHHHH
– | – | 96.4 | 7.3 | – | 2381B10 (designed binder) MGVSDVPRDLEVVAATPTSLLISWDAPAGGGYGYYRITYGETGGNSPVQEFTVPVSKGTATISGLKPGVDYTITVYAVEYNFIGAGYYHRPISINYRTEIDKPSQHHHHHH
– | – | 15.3 | 0.7 | – | 2381C08 (designed binder) MGVSDVPRDLEVVAATPTSLLISWDAPADGAYGYYRITYGETGGNSPVQEFTVPVSKGTATISGLKPGVDYTITVYAVEFPYPFAGYYHRPISINYRTEIDKPSQHHHHHH
– | – | 88.6 | 2.7 | – | 2382F03 (designed binder) MGVSDVPRDLEVVAATPTSLLISWDAPAADAYGYYRITYGETGGNSPVQEFTVPVSKGTATISGLKPGVDYTITVYAVEFNFPGAGYYHRPISINYRTEIDKPSQHHHHHH
– | – | 120 | 12.9 | – | 2382A01 (designed binder) MGVSDVPRDLEVVAATPTSLLISWAAPAGGGYGYYRITYGETGGNSPVQEFTVPVSKGTATISGLKPGVDYTITVYAVEYDFPGAGYYHRPISINYRTEIDKPSQHHHHHH
– | – | 22.2 | 4 | – | 2381H01 (designed binder) MGVSDVPRDLEVVAATPTSLLISWSPRDSTGLVRRGYYRITYGETGGNSPVQQFTVPGSKGTATISGLKPGVDYTITVYAVEYPYDHSGYYHRPISINYRTEIDKPSQHHHHHH
– | – | 122 | 3.5 | 0.757 | 2382C09 (designed binder) MGVSDVPRDLEVVAATPTSLLISWDAPAEGYGYYRITYGETGGNSPVQEFTVPVSKGTATISGLKPGVDYTITVYAVEFDFPGSGYYHRPISINYRTEIDKPSQHHHHHH
– | – | 101 | 0.9 | 1.86 | 2382H09 (designed binder) MGVSDVPRDLEVVAATPTSLLISWDAPAAAYGYYRITYGETGGNSPVQEFTVPSSKGTATISGLKPGVDYTITVYAVEFDFPGSGYYHRPISINYRTEIDKPSQHHHHHH
– | – | 126 | – | 1.78 | 2971E02 (designed binder) MGVSDVPRDLEVVAATPTSLLISWDAPSDDYGYYRITYGETGGNSPVQEFTVPIGKGTATISGLKPGVDYTITVYAVEFPWPHAGYYHRPISINYRTEIDKPSQHHHHHH
– | – | 132 | – | 2.79 | 2971A09 (designed binder) MGVSDVPRDLEVVAATPTSLLISWDAPADDYGYYRITYGETGGNSPVQEFTVPIGKGTATISGLKPGVDYTITVYAVEFPWPHAGYYHRPISINYRTEIDKPSQHHHHHH
– | – | 100 | 3 | 2.35 | 2382B10 (designed binder) MGVSDVPRDLEVVAATPTSLLISWDAPADAYGYYRITYGETGGNSPVQEFTVPSSKGTATISGLKPGVDYTITVYAVEYDFPGSGYYHRPISINYRTEIDKPSQHHHHHH
– | – | 120 | – | 0.806 | 2971A03 (designed binder) MGVSDVPRDLEVVAATPTSLLISWDPPSDDYGYYRITYGETGGNSPVQEFTVPIGKGTATISGLKPGVDYTITVYAVEFPWPHAGYYHRPISINYRTEIDKPSQHHHHHH
– | – | 53.4 | 5 | – | 2381H06 (designed binder) MGVSDVPRDLEVVAATPTSLLISWGDVRTNEARQGYYRITYGETGGNSPLQGFTVPGSKGTATISGLKPGVDYTITVYAVEYTYEHSGYYHRPISINYRTEIDKPSQHHHHHH
